Bridge positions count the residues as written; N and C are the ends. Square brackets hold non-standard residues; d marks the D form. Ends that are not written are not given here. 1Nal = N[C@@H](Cc1cccc2ccccc12)C(=O)O; Sar = CNCC(=O)O Where only a bound is given, the exact number is not on record here.

Experimental findings from patent publication US7906485B2, “Erythropoietin receptor peptide formulations and uses” (Affymax, Inc., priority 2005, dated 2011) are described below.

In series [1] the test system is human, bone marrow derived CD34+ cells. Nature of the series: C/BFU-e assay (erythroid colonies). Format: cell-based. How it is done: EPO-R signaling stimulates the differentiation of bone marrow stem cells into proliferating red blood cell precursors. This assay measures the ability of test peptides to stimulate the proliferation and differentiation of red blood cell precursors from primary human bone marrow pluripotent stem cells.
For this assay, serial dilutions of test peptide are made in IMDM medium (Gibco) supplemented with 10% FBS (Hyclone). These serial dilutions, or positive control EPO peptide, are then added to methylcellulose to give a final volume of 1.5 mL. The methylcellulose and peptide mixture is then vortexed thoroughly. Aliquots (100,000 cells/mL) of human, bone marrow derived CD34+ cells (Poietics/Cambrex) are thawed. The thawed cells are gently added to 0.1 mL of 1 mg/ml DNAse (Stem Cells) in a 50 mL tube. Next, 40-50 mL IMDM medium is added gently to cells: the medium is added drop by drop along the side of the 50 mL tube for the first 10 mL, and then the remaining volume of medium is slowly dispensed along the side of the tube. The cells are then spun at 900 rpm for 20 min, and the media removed carefully by gentle aspiration. The cells are resuspended in 1 ml of IMDM medium and the cell density per mL is counted on hemacytometer slide (10 μL aliquot of cell suspension on slide, and cell density is the average count×10,000 cells/ml). The cells are then diluted in IMDM medium to a cell density of 15,000 cells/mL. A 100 μL of diluted cells is then added to each 1.5 mL methyl cellulose plus peptide sample (final cell concentration in assay media is 1000 cells/mL), and the mixture is vortexed. Allow the bubbles in the mixture to disappear, and then aspirate 1 mL using blunt-end needle. Add 0.25 mL aspirated mixture from each sample into each of 4 wells of a 24-well plate (Falcon brand). Incubate the plated mixtures at 37° C. under 5% CO2 in a humid incubator for 14 days. Score for the presence of erythroid colonies using a phase microscope (5×-10× objective, final magnification of 100×). The concentration of test peptide at which the number of formed colonies is 90% of maximum, relative to that observed with the EPO positive control, is recorded as the EC90 [See Table 2: C/BFU-e EC90].

Series [2] concerns erythropoiesis. Put plainly: Pharmacology studies in animals (erythropoiesis). It counts as in vivo, mice, rats, dogs, rabbits and monkeys.
Series [3] in a line: Pharmacokinetic studies in rats. Format: in vivo.
Series [4] has as its system erythropoiesis. Nature of the series: Phase 1 study in normal healthy volunteers: pharmacodynamics. It counts as in vivo, human. The text has this: (§1) Peptide I has been tested in […] in one Phase 1 study. This first-in-human study with Peptide I was a randomized, double-blind, placebo-controlled, single-dose, IV, escalating dose, safety and tolerability trial. The primary objectives of the study were to evaluate the safety and pharmacokinetics of Peptide I, and to establish a pharmacologically active dose (PAD). Cohorts of seven male volunteers were scheduled to receive single doses of Peptide I or placebo in a 5:2 ratio. Cohorts were to be added at increasing dose levels until a PAD, as determined by an increase in hemoglobin from baseline values, was observed, at which point the dose level identified as the PAD would be repeated in another cohort of volunteers.
(§2) The study was initiated in four cohorts were enrolled in a consecutive manner at Peptide I doses of 0.025, 0.05, 0.1 mg/kg, and […], respectively (single dose per cohort). […] As such, the study was terminated.

Series [5] in a line: Phase 1 study in normal healthy volunteers: safety. Format: in vivo, human.
Excerpt: as §1, §2

Series [6] in a line: Phase 1 study in normal healthy volunteers: pharmacokinetics. Format: in vivo, human.
Excerpt: as §1, §2
In the 0.025 mg/kg dose group, Peptide I concentration peaked between 5 and 15 minutes, while tmax approached 1 hour for the 0.1 mg/kg dose.

Series [7] in a line: Pharmacokinetic studies in dogs. It counts as in vivo.
Series [8] in a line: Pharmacokinetic studies in rats, dogs and monkeys (general statements). It counts as in vivo.
Series [9] has as its target T1, Recombinant Human EPO R/Fc Chimera (human, UniProt P19235 25-250).
T1 construct: extracellular domain; Bought: R&D Systems, catalog number 963-ER; also called recombinant EPOr extracellular domain fused to the Fc portion of human IgG1; recombinant erythropoietin receptor; not shown: Fc portion of human IgG1
T1 sequence (looked up): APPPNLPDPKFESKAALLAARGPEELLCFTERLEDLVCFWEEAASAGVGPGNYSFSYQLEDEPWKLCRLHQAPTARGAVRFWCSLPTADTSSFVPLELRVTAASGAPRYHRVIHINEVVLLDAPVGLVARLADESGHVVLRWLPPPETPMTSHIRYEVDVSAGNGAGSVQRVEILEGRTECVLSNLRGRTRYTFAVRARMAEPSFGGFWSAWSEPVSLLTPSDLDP
Put plainly: radioligand competition; competitor: 125I-EPO; EPO R/Fc chimera 100 pg/tube, Protein-G Sepharose pull-down, gamma counting. (In a radioligand displacement assay an active substance lowers the binding of a labelled ligand.)

The target of series [10] is T2, recombinant EPO-R produced in Chinese Hamster Ovary cells as a fusion protein to a portion of the human … (human, UniProt P19235 25-250).
T2 sequence (looked up): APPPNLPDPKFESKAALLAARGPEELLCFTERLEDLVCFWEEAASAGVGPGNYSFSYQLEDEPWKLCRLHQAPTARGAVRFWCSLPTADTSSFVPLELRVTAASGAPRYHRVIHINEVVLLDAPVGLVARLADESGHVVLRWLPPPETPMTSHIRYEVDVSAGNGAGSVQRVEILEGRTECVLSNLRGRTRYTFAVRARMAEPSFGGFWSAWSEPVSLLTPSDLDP
Put plainly: AlphaQuest bead proximity competition; competitor: biotinylated tracer peptide SEQ ID NO: 4 (30 nM) on streptavidin donor beads, EPO-R fusion on acceptor beads.

Where [11] appears, read: five-sixth nephrectomy rats, IV 9.87 mg/kg.

“Peptide IV: peptide dimer of SEQ ID NO: 1 monomers (AcG)GLYACHMGPIT(1-nal)VCQPLRK (Ac-GGLYACHMGPIT[1Nal]VCQPLRK; disulfide 6-15 (inferred); not fully specified (residue 1); printed as (AcG)GLYACHMGPIT(1-nal)VCQPLRK; also: homodimer joined through a branched tertiary amide linker on the Lys20 side chain, PEG carried on the linker)”: the 90% effect level in [1] (Table 4) (EC90) was put at 6.2 nM. That is a single-digit nanomolar value.
Consider “peptide dimer of SEQ ID NO: 2 monomers (AcG)GLYACHMGPIT(1-nal)VCQPLR(MeG)K; a fully synthetic EPO receptor agonist (Ac-GGLYACHMGPIT[1Nal]VCQPLR[Sar]K; disulfide 6-15 (inferred); not fully specified (residue 1); printed as (AcG)GLYACHMGPIT(1-nal)VCQPLR(MeG)K; also: homodimer joined through a branched tertiary amide linker on the Lys21 side chain, PEG carried on the linker) [Peptide I]”, for which, in the series on erythropoiesis [2] (rats and monkeys), the “rise in reticulocytes and RBCs as measured by hemoglobin levels” value is “dose proportional”. For the same molecule, in the series on erythropoiesis [2] (single or repeat dose, mice, rats (normocythemic and nephrectomized), dogs, rabbits, monkeys), the stimulation of erythropoiesis result was “potent stimulator of erythropoiesis with dose-dependent activity”. In series [3] (setting [11]), the clearance is 0.763 mL/h/kg and the t1/2 entry is “approximately 48 hours”. Further, in series [3] (normocythemic rats), the clearance amounted to 1.44 mL/h/kg. For the same molecule, the “Elimination half life (t1/2)” value in series [3] (rats) was 21.5 to 30.7 h. Besides, the “average hemoglobin levels at Day 42” value in the series on erythropoiesis [4] (0.1 mg/kg) is “returned to baseline”. Moreover, in the series with erythropoiesis [4] (0.1 mg/kg, 10 recipients), the “average maximum increase from baseline in hemoglobin” value was determined as 1.36 ± 0.39 g/dL. Further, the “difference in change from baseline hemoglobin versus placebo” value with erythropoiesis [4] (0.1 mg/kg, at Day 42 as throughout the study) is at least 0.5 g/dL. Further, the “time of maximum reticulocyte counts postdose” value with erythropoiesis [4] (all dose cohorts) is given as “approximately 7 days”. The “hemoglobin response and change from baseline (mean and maximum)” value in the series with erythropoiesis [4] (over 28 days post-dose) is “dose-dependent increases”. Besides, in the series on erythropoiesis [4] (single IV 0.025, 0.05, 0.1 mg/kg), the “Reticulocyte count (absolute number and percent)” value is listed as “dose-dependent increase”. Further, the “PAD associated with at least a 1.0 g/dL increase in hemoglobin” value with erythropoiesis [4] (single IV dose, NHV) stood at 0.1 mg/kg. The “Serum EPO levels” value in the series on erythropoiesis [4] (with increasing dose) was “transiently decreased”. Besides, the “number of adverse events” value in series [5] (Peptide I group) is listed as 22. Also, in series [5] (Peptide I recipients), the “AEs considered probably not related to the study drug” value is listed as 15/22. Moreover, in [5] (human, in vivo), the “Serious Adverse Events or withdrawals due to an AE” value is reported as “no Serious Adverse Events (SAEs) or withdrawals from the study due to an AE”; the “changes in vital signs, ECGs or laboratory values” was “no clinically significant changes”; the “subjects who developed antibodies specific to Peptide I” value is on record as “None”. Further, the “overall safety and tolerability” value in series [5] (single IV doses of 0.025, 0.05 or 0.1 mg/kg) was “safe and well tolerated”. In series [5] (subjects dosed with Peptide I), this molecule yielded an abdominal pain of 10.0%, a headache of 20.0%, a nasopharyngitis of 10.0% and a nausea of 10.0%. Moreover, the “subjects who experienced adverse events” value in series [5] (subjects receiving Peptide I) is on record as 11 of 20. The molecule also displayed a concentration for an effect of 90% (EC90) in [1] (Table 6) of 3 nM. Besides, in [6] (0.025 mg/kg), the “Plasma clearance, geometric mean” value stood at 78.0 mL/h; the “Volume of distribution, mean” value worked out at 2165 mL; the “half-life, mean” value came out at 19.2 h; the “half-life, range” value lay within 16.7 to 21.9 h. For the same molecule, the “plasma concentrations quantifiable (>25 ng/mL) up to” value (shortened to “plasma concentrations quantifiable”) in series [6] (0.025 mg/kg) was “up to 96 hours”. In series [6] (0.05 mg/kg), the “Plasma clearance, geometric mean” value was found to be 70.7 mL/h; the “Volume of distribution, mean” value came to 1903 mL; the “half-life, mean” value was 18.7 h; the “half-life, range” value was 15.3 to 25.1 h. In series [6] (0.05 mg/kg), the “plasma concentrations quantifiable” value was at most 5 days. Also, in [6] (0.1 mg/kg), the “Plasma clearance, geometric mean” value was 59.2 mL/h; the “Volume of distribution, mean” value came out at 2010 mL; the “half-life, mean” value was 23.5 h; the “half-life, range” value lay within 17.7 to 33.1 h. In series [6] (0.1 mg/kg), the “plasma concentrations quantifiable” value is at most 7 days and the tmax was about 1 h. For the same molecule, in series [6] (dose normalized, ANOVA), the “AUC(0-infinity) relationship with dose” value is on record as “non-linearity at the highest dose” and the “Cmax relationship with dose” value was “linear relationship with dose”. Further, the “plasma concentration at which metabolic/elimination processes saturate” value in [6] (human, in vivo) was over 400 ng/mL. In series [7], the “Elimination half life (t1/2)” value was determined as 73.7 h. Also, the plasma persistence result in [8] (in comparison to currently marketed rHuEPO products) is listed as “sustained plasma persistence”. Moreover, the Biodistribution entry in series [8] (in vivo) is “primarily to the plasma fraction”.
Consider “peptide dimer of SEQ ID NO: 3 monomers (AcG)GLYACHMGPIT(1-nal)VCQPLR(MeG) [Peptide III] (Ac-GGLYACHMGPIT[1Nal]VCQPLR[Sar]; disulfide 6-15 (inferred); not fully specified (residue 1); printed as (AcG)GLYACHMGPIT(1-nal)VCQPLR(MeG); also: homodimer, C-termini joined to the alpha- and epsilon-amino groups of a lysine linker, spacer and PEG on the linker)”, for which, in series [1] (Table 2), it took 2.7 nM to reach the 90% level (EC90).
Turning to “peptide dimer of SEQ ID NO: 3 monomers (AcG)GLYACHMGPIT(1-nal)VCQPLR(MeG) [Peptide II] (Ac-GGLYACHMGPIT[1Nal]VCQPLR[Sar]; disulfide 6-15 (inferred); not fully specified (residue 1); printed as (AcG)GLYACHMGPIT(1-nal)VCQPLR(MeG); also: homodimer, C-termini joined to the alpha- and epsilon-amino groups of a lysine linker, spacer and PEG on the linker)”, the 90% effect level in series [1] (Table 2) (EC90) was put at 2.2 nM.

B1: Peptide I (SEQ ID NO: 2) (peptide)
peptide: Ac-GGLYACHMGPIT[1Nal]VCQPLR[Sar]K
modifications: disulfide 6-15; not fully specified (residue 21); printed as (AcG)GLYACHMGPIT(1-nal)VCQPLR(MeG)K; also: PEGylated homodimer, second copy joined via the branched linker on K21 epsilon-amine, linker, PEG size and linkage not given here
As for B1, the IC50 in [9] was determined as 111 nM.

B2: Peptide II (SEQ ID NO: 3) (peptide)
peptide: Ac-GGLYACHMGPIT[1Nal]VCQPLR[Sar]
modifications: disulfide 6-15; not fully specified (C-terminus); printed as (AcG)GLYACHMGPIT(1-nal)VCQPLR(MeG); also: homodimer of two monomers, C-termini joined to alpha- and epsilon-amino groups of a lysine linker with spacer and PEG
B2: the IC50 in series [10] turned out to be 0.11 nM.

As a reminder, the EC90 is the concentration at which the effect reaches the 90% level. A high value points to weaker potency. Usually clearance stands for the volume of plasma or blood freed of the substance per unit of time. Higher therefore signals a high capacity for elimination. The IC50 is the concentration that gives 50% inhibition.
